Results reported in patent US20240117049A1 (Hoffmann-La Roche, published 2024).
Read-outs that look alike come from different tables or passages of the source.

B1: P1AE1702_Fab, humanized anti-FAP Fab VH2G2a/VL2G2a (Fab, V domains shown)
VH: EVQLLESGGGLVQPGGSLRLSCAASGYTLTDYNMDWVRQAPGKGLEWVGDIYPNTGGTIYNQKFKGRFTISIDKSKNTAYLQMNSLRAEDTAVYYCTRFRGIHYAMDYWGQGTTVTVSS
VL: DIQMTQSPSSLSASVGDRVTITCRASESVDNYGLSFINWFQQKPGQPPKLLIYGTSNRGSGVPSRFSGSGSGTDFTLTISSLQPEDFAMYFCQQSNEVPYTFGGGTKVEIK
B2: P1AD3690, untargeted tetravalent OX40 (49B4) antigen binding molecule (4+0) (antibody, human IgG1, kappa, L234A L235A)
heavy: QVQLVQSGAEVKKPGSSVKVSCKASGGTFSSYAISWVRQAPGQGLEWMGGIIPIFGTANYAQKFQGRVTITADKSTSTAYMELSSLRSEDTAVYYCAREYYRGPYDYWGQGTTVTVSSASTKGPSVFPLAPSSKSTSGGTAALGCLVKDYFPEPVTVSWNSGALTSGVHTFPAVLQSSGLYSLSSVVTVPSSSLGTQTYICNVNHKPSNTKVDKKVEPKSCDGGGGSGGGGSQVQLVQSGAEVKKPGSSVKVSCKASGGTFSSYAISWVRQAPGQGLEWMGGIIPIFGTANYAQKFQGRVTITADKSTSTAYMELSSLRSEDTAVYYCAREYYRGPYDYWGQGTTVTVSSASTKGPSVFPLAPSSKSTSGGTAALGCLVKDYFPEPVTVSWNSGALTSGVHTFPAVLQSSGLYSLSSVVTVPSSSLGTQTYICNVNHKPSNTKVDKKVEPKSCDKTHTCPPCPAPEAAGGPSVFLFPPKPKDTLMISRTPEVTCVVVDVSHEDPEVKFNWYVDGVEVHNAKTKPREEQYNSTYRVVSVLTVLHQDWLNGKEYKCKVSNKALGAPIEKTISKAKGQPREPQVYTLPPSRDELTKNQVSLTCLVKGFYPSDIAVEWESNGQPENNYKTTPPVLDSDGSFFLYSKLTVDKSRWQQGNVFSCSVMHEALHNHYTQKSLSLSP
light: DIQMTQSPSTLSASVGDRVTITCRASQSISSWLAWYQQKPGKAPKLLIYDASSLESGVPSRFSGSGSGTEFTLTISSLQPDDFATYYCQQYSSQPYTFGQGTKVEIKRTVAAPSVFIFPPSDEQLKSGTASVVCLLNNFYPREAKVQWKVDNALQSGNSQESVTEQDSKDSTYSLSSTLTLSKADYEKHKVYACEVTHQGLSSPVTKSFNRGEC
B3: 4B9_Fab (Fab, V domains shown)
VH: EVQLLESGGGLVQPGGSLRLSCAASGFTFSSYAMSWVRQAPGKGLEWVSAIIGSGASTYYADSVKGRFTISRDNSKNTLYLQMNSLRAEDTAVYYCAKGWFGGFNYWGQGTLVTVSS
VL: EIVLTQSPGTLSLSPGERATLSCRASQSVTSSYLAWYQQKPGQAPRLLINVGSRRATGIPDRFSGSGSGTDFTLTISRLEPEDFAVYYCQQGIMLPPTFGQGTKVEIK
notes: Fab; also called anti-FAP 4B9 Fab
B4: P1AE1690_Fab, humanized anti-FAP Fab VH1G2a/VL1G1a (Fab, V domains shown)
VH: QVQLVQSGAEVKKPGASVKVSCKASGYTLTDYNMDWVRQAPGKSLEWIGDIYPNTGGTIYNQKFKGRVTMTIDKSTSTVYMELSSLRSEDTAVYYCTRFRGIHYAMDYWGQGTTVTVSS
VL: EIVLTQSPATLSLSPGERATLSCRASESVDNYGLSFINWFQQKPGQAPRLLIYGTSNRGSGIPARFSGSGSGTDFTLTISSLEPEDFAVYFCQQSNEVPYTFGGGTKVEIK
B5: P1AE1693_Fab, humanized anti-FAP Fab VH1G2a/VL1G2a (Fab, V domains shown)
VH: QVQLVQSGAEVKKPGASVKVSCKASGYTLTDYNMDWVRQAPGKSLEWIGDIYPNTGGTIYNQKFKGRVTMTIDKSTSTVYMELSSLRSEDTAVYYCTRFRGIHYAMDYWGQGTTVTVSS
VL: EIVLTQSPATLSLSPGERATLSCRASESVDNYGLSFINWFQQKPGQPPRLLIYGTSNRGSGIPARFSGSGSGTDFTLTISSLEPEDFAVYFCQQSNEVPYTFGGGTKVEIK
B6: P1AE1689_Fab, humanized anti-FAP Fab VH1G1a/VL1G1a (Fab, V domains shown)
VH: QVQLVQSGAEVKKPGASVKVSCKASGYTLTDYNMDWVRQAPGQGLEWIGDIYPNTGGTIYNQKFKGRVTMTIDTSTSTVYMELSSLRSEDTAVYYCTRFRGIHYAMDYWGQGTTVTVSS
VL: EIVLTQSPATLSLSPGERATLSCRASESVDNYGLSFINWFQQKPGQAPRLLIYGTSNRGSGIPARFSGSGSGTDFTLTISSLEPEDFAVYFCQQSNEVPYTFGGGTKVEIK
notes: also called FAP antibody 1G1a; H212
B7: P1AE8875 OX40(MOXR0916) x FAP (1G1a) (3 + 1) C-terminal crossfab fusion (bispecific antibody, human IgG1, kappa, L234A L235A)
heavy 1: not shown
heavy 2: EVQLVQSGAEVKKPGASVKVSCKASGYTFTDSYMSWVRQAPGQGLEWIGDMYPDNGDSSYNQKFRERVTITRDTSTSTAYLELSSLRSEDTAVYYCVLAPRWYFSVWGQGTLVTVSSASTKGPSVFPLAPSSKSTSGGTAALGCLVEDYFPEPVTVSWNSGALTSGVHTFPAVLQSSGLYSLSSVVTVPSSSLGTQTYICNVNHKPSNTKVDEKVEPKSCGGGGSGGSGGEVQLVQSGAEVKKPGASVKVSCKASGYTFTDSYMSWVRQAPGQGLEWIGDMYPDNGDSSYNQKFRERVTITRDTSTSTAYLELSSLRSEDTAVYYCVLAPRWYFSVWGQGTLVTVSSASTKGPSVFPLAPSSKSTSGGTAALGCLVEDYFPEPVTVSWNSGALTSGVHTFPAVLQSSGLYSLSSVVTVPSSSLGTQTYICNVNHKPSNTKVDEKVEPKSCDKTHTCPPCPAPEAAGGPSVFLFPPKPKDTLMISRTPEVTCVVVDVSHEDPEVKFNWYVDGVEVHNAKTKPREEQYNSTYRVVSVLTVLHQDWLNGKEYKCKVSNKALGAPIEKTISKAKGQPREPQVCTLPPSRDELTKNQVSLSCAVKGFYPSDIAVEWESNGQPENNYKTTPPVLDSDGSFFLVSKLTVDKSRWQQGNVFSCSVMHEALHNHYTQKSLSLSPG
light 1: not shown
light 2: EIVLTQSPATLSLSPGERATLSCRASESVDNYGLSFINWFQQKPGQAPRLLIYGTSNRGSGIPARFSGSGSGTDFTLTISSLEPEDFAVYFCQQSNEVPYTFGGGTKVEIKSSASTKGPSVFPLAPSSKSTSGGTAALGCLVKDYFPEPVTVSWNSGALTSGVHTFPAVLQSSGLYSLSSVVTVPSSSLGTQTYICNVNHKPSNTKVDKKVEPKSC
notes: also called MOX0916 3+1
B8: P1AE8872 OX40(MOXR0916) x FAP (1G1a) (2 + 1) C-terminal crossfab fusion (bispecific antibody, human IgG1, kappa, L234A L235A)
heavy 1: not shown
heavy 2: EVQLVQSGAEVKKPGASVKVSCKASGYTFTDSYMSWVRQAPGQGLEWIGDMYPDNGDSSYNQKFRERVTITRDTSTSTAYLELSSLRSEDTAVYYCVLAPRWYFSVWGQGTLVTVSSASTKGPSVFPLAPSSKSTSGGTAALGCLVEDYFPEPVTVSWNSGALTSGVHTFPAVLQSSGLYSLSSVVTVPSSSLGTQTYICNVNHKPSNTKVDEKVEPKSCDKTHTCPPCPAPEAAGGPSVFLFPPKPKDTLMISRTPEVTCVVVDVSHEDPEVKFNWYVDGVEVHNAKTKPREEQYNSTYRVVSVLTVLHQDWLNGKEYKCKVSNKALGAPIEKTISKAKGQPREPQVCTLPPSRDELTKNQVSLSCAVKGFYPSDIAVEWESNGQPENNYKTTPPVLDSDGSFFLVSKLTVDKSRWQQGNVFSCSVMHEALHNHYTQKSLSLSPG
light 1: not shown
light 2: EIVLTQSPATLSLSPGERATLSCRASESVDNYGLSFINWFQQKPGQAPRLLIYGTSNRGSGIPARFSGSGSGTDFTLTISSLEPEDFAVYFCQQSNEVPYTFGGGTKVEIKSSASTKGPSVFPLAPSSKSTSGGTAALGCLVKDYFPEPVTVSWNSGALTSGVHTFPAVLQSSGLYSLSSVVTVPSSSLGTQTYICNVNHKPSNTKVDKKVEPKSC
notes: also called MOX0916 2+1
B9: P1AF6455 OX40(CLC563) x FAP (1G1a_EPKSCS) (3 + 1) C-terminal crossfab fusion (bispecific antibody, human IgG1, kappa, L234A L235A)
heavy 1: not shown
heavy 2: not shown
light 1: not shown
light 2: EIVLTQSPATLSLSPGERATLSCRASESVDNYGLSFINWFQQKPGQAPRLLIYGTSNRGSGIPARFSGSGSGTDFTLTISSLEPEDFAVYFCQQSNEVPYTFGGGTKVEIKSSASTKGPSVFPLAPSSKSTSGGTAALGCLVKDYFPEPVTVSWNSGALTSGVHTFPAVLQSSGLYSLSSVVTVPSSSLGTQTYICNVNHKPSNTKVDKKVEPKSCS
notes: also called CLC-563, S-variant 3+1; C2

What was measured:
[1] = biological target: T1, biotinylated recombinant human FAP (human, UniProt Q12884 27-760, biotinylated); test: SPR (Biacore)
T1 construct: the Biacore paragraphs only say biotinylated (recombinant) human FAP; also called biotinylated human FAP; recombinant huFAP

[2] = biological target: T2, human OX40 on cells (human, UniProt P43489 29-277); test: cell-based or functional assay
T2 sequence: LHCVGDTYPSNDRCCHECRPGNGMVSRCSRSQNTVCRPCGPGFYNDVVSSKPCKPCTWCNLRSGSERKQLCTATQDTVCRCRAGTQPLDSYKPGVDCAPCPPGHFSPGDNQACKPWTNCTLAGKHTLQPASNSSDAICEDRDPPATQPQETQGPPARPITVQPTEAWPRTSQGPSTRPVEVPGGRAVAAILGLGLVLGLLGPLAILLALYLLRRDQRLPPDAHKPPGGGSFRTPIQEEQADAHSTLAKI

[3] = biological target: T2, human OX40 on cells; test: cell-based or functional assay; remark: listed apart in the source
[4] = biological target: T1, biotinylated recombinant human FAP; test: SPR (Biacore), biotinylated huFAP on CAP chip, Fab as analyte, 1:1 fit
[5] = biological target: T3, human Fibroblast Activation Protein (FAP) expressed on cells (human, UniProt Q12884 1-760); test: flow cytometry, NIH/3T3-huFAP clone 19 cells
T3 construct: cell surface FAP on transfected HEK cells or NIH/3T3-huFAP clone 19 fibroblasts; also called huFAP; human FAP-transfected HEK cells

[6] = biological target: T2, human OX40 on cells; test: flow cytometry, activated human CD4+ T cells
[7] = biological target: T4, FcRn (biotinylated, coupled to streptavidin-sepharose); test: FcRn affinity chromatography, pH gradient, retention compared to standards
T4 construct: also called neonatal Fc receptor

[8] = biological target: T1, biotinylated recombinant human FAP; test: SPR, stressed against unstressed sample, normalised to anti-hu IgG capture
[9] = biological target: T5, biotinylated human OX40 (human, UniProt P43489 29-214, limits assumed, biotinylated); test: as above
T5 sequence: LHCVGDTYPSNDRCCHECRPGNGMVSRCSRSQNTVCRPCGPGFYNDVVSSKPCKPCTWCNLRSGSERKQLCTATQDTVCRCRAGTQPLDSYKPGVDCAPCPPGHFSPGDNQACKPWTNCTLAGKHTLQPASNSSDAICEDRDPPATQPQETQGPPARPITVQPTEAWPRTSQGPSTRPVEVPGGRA

[10] = biological target: T2, human OX40 on cells; test: cell-based or functional assay; remark: listed apart in the source
[11] = biological target: T2, human OX40 on cells; test: cell-based or functional assay; remark: listed apart in the source
[12] = biological target: T2, human OX40 on cells; test: cell-based or functional assay; remark: listed apart in the source
[13] = biological target: T2, human OX40 on cells; test: cell-based or functional assay; remark: listed apart in the source

Kd [1] [nM] | T ½ [1] [min] | koff [1] [s⁻¹] | kon [1] [M⁻¹ s⁻¹] | EC50 of NFκB activation, HeLa_hOx40_NFkB_Luc1, w/ hu FAP+ fibroblasts [2] [nM] | AUC of CD25 upregulation compared to reference compound [%] [3] [%] | EC50 [5] [nM] | EC50 [6] [nM] | FcRn affinity (relative retention) [7] | binding activity [%] after 2 weeks at pH 6.0/40°C [8] [%] | binding activity [%] after 2 weeks at pH 7.4/37°C [8] [%] | binding activity [%] after 2 weeks at pH 6.0/40°C [9] [%] | binding activity [%] after 2 weeks at pH 7.4/37°C [9] [%] | other results | Binder
0.213 | 108 | 0.000107 | 502000 |  |  |  |  |  |  |  |  |  |  | B1
 |  |  |  | 0.18 | 13 |  |  |  |  |  |  |  | EC50 of NFκB activation, HeLa_hOx40_NFkB_Luc1, w/o crosslinking [2]: 0.23 nM | B2
0.279 | 55 | 0.000208 | 747000 |  |  |  |  |  |  |  |  |  | Kd [4]: 0.43 nM; koff [4]: 0.00078 s⁻¹; kon [4]: 1.82e+06 M⁻¹ s⁻¹ | B3
0.114 | 183 | 6.3e-05 | 551000 |  |  |  |  |  |  |  |  |  |  | B4
0.135 | 161 | 7.18e-05 | 530000 |  |  |  |  |  |  |  |  |  |  | B5
0.095 | 274 | 4.21e-05 | 443000 |  |  |  |  |  |  |  |  |  |  | B6
 |  |  |  | 0.31 | 100 | 2.7 | 0.69 | -0.22 | > 90 | > 90 | > 90 | > 90 | EC50 of NFκB activation, HeLa_hOx40_NFkB_Luc1, w/o crosslinking [2]: 3.94 nM; EC50 of CD25 upregulation on CD4+ T cells, suboptimal TCR stimulation of human PBMC with FAP+ fibroblasts [3]: 0.02 nM | B7
 |  |  |  | 0.19 | 106 | 1.78 | 0.9 | 0.15 | > 90 | > 90 | > 90 | > 90 | EC50 of CD25 upregulation on CD4+ T cells, suboptimal TCR stimulation of human PBMC with FAP+ fibroblasts [3]: 0.01 nM | B8
 |  |  |  |  |  | 1.71 | 1.47 | -0.1 | 98 | 96 | 100 | 100 | EC50 of NFκB activation, HeLa_hOx40_NFkB_Luc1, w/ hu FAP+ fibroblasts [10]: 0.2 nM; EC50 of NFκB activation, HeLa_hOx40_NFkB_Luc1, w/o crosslinking [10]: 0.8 nM; EC50 of CD25 upregulation on CD4+ T cells, suboptimal TCR stimulation of human PBMC with FAP+ fibroblasts [11]: 3 pM; EC50 of increased CEACAM5 TCB mediated cytokine secretion of human PBMC with FAP+ fibroblasts [12]: 0.058 nM; EC50 of suppression of TGFβ-induced FoxP3 (FoxP3 MFI) on CD4+ CD25+ Treg cells, FAP-coated beads [13]: 0.25 nM | B9
